Legend:
Experiment in all cases: purified protein
Format in all cases: biochemical, Crocosphaera subtropica
purified protein [1] = substrate: NC(=O)c1ccc[n+]([C@@H]2O[C@H](COP(=O)(O)OP(=O)(O)OC[C@H]3O[C@@H](n4cnc5c(N)ncnc54)[C@H](O)[C@@H]3O)[C@@H](O)[C@H]2O)c1; conditions: 1.0 mM phosphite, 100 mM MOPS pH 7.3, 37°C, text b35 prints kcat 2.24 ± 0.15
purified protein [2] = substrate: NC(=O)c1ccc[n+]([C@@H]2O[C@H](COP(=O)(O)OP(=O)(O)OC[C@H]3O[C@@H](n4cnc5c(N)ncnc54)[C@H](OP(=O)(O)O)[C@@H]3O)[C@@H](O)[C@H]2O)c1; conditions: 1.0 mM phosphite, 100 mM MOPS pH 7.3, 37°C
purified protein [3] = substrate: O=[PH](O)O; conditions: 1.0 mM NAD+ as co-substrate, 100 mM MOPS pH 7.3, 37°C

B1: Ct-PtxD (Crocosphaera subtropica ATCC 51142) (protein)
chain: MNQKPKVVITHWVHPEIIDYLTPHCELILNQTKETLTREEVINRSKDAQGLMVFMPDYIDVNFLEACPQLKVISGALRGYDNFDVEACTKRNIWFTIVPDLLAAPTAELTIGLLLILARRMVEGDRLIRSGNFQGWKPQLYSTGLLNKTLGIIGMGKLGKALTKRLMGFDMTLLYHDKITLTSQQERDWKITKTSLEELLTKSDYVVLMVPLVPDTYHLINENSLKMMKPNSFLINPCRGSIVDETAVATAIKSGHLAGYAADVFEMEDWAIANRPQSINQTLLTDINHTFFTPHLGSAVNEVRRDIALEAAKNIIEVLSENRPQGAVNGIV
notes: full-length, 332 residues; pET-21b(+) NdeI/XhoI, His-tagged, E. coli Rosetta2 (DE3) pLysS
Purified protein [1]
  Km: 9.07 ± 1.05 µM
Purified protein [2]
  Km: 122 ± 4 µM
Purified protein [3]
  Km: 168 ± 25 µM

Source: paper PMC10473253, “A novel salt- and organic solvent-tolerant phosphite dehydrogenase from Cyanothece sp. ATCC 51142” (Frontiers in Bioengineering and Biotechnology, 2023)
